This data set is described as follows: soluble on expression in E. coli; label from the status in PepcDB or PDB records.
For the sequence “MGSDKIHHHHHHMPRIKDGFKGERAIVLPAFLIEELKQDPLGSELYITDIGYYPHAYFHYRKRDTEEVTEFILIYCMEGEGWFELDKHQYAVTANQFFILPEHQAHAYGSNEENPWTIYWIHFNGTKAAFFSAGFDRPKSITPQEDSRIKERLVLFEEIYSSISFGYSKNYMLYATTSLFHFLGSMKFIGEYRDCGSMRNSYRNKDVVQIAIHFMQENLSKTIRLADIAAEVNLSVSYFSNLFEEKTGSSPLRYLTYLRIQEACHYLDFTNLKINQISPLVGYEDSLYFSRLFTKTMGVPPSAYKEKKKG”, the “soluble on expression in E. coli” value is recorded as “not soluble”.

On to “MGSDKIHHHHHHMENIAQWVGIDVSKATLDVYIRPLGKAMIVANTESEISNLVKLLLSYSLNLIVLEATGGLETELVIQLQAALLPVALINPRQGRDFAKATGKLAKTDAIDAQILAHFGEAMKPQVLAIQSETARQLSELISRRRQLVEMQTAEKNRRSLTRGQALADIEAHIEYLEEHLKQLNQKIAELTQNNLQWIDKVNLLKSTPGIGQVISTTLVSDLPELGQLTAKQISRLVGVAPINHDSGQHKGKRMINGGRAHVRATLYMGAVVAMVHNPVIKAFYERLIERGKSKKLALTACVHKMLVILNAMVRDNLPWRVTENLQPIANA”, for which the “soluble on expression in E. coli” value is “not soluble”.

On to “MGSSHHHHHHSSGLVPRGSMEFVKDLKTPEDYINNELKYGAHNYDPIPVVLKRAKGVFVYDVNDKRYYDFLSAYSSVNQGHCHPNILNAMINQAKNLTICSRAFFSVPLGICERYLTNLLGYDKVLMMNTGAEANETAYKLCRKWGYEVKKIPENMAKIVVCKNNFSGRTLGCISASTTKKCTSNFGPFAPQFSKVPYDDLEALEEELKDPNVCAFIVEPIQGEAGVIVPSDNYLQGVYDICKKYNVLFVADEVQTGLGRTGKLLCVHHYNVKPDVILLGKALSGGHYPISAVLANDDIMLVIKPGEHGSTYGGNPLAASICVEALNVLINEKLCENAEKLGGPFLENLKRELKDSKIVRDVRGKGLLCAIEFKNELVNVLDICLKLKENGLITRDVHDKTIRLTPPLCITKEQLDECTEIIVKTVKFFDERF”, for which the “soluble on expression in E. coli” value is listed as “soluble”.

In the case of “MGSDKIHHHHHHMSFFPGPDPLAGDKPACDAIEHLIIPRTSDIGGLQVRRALPTAKRRLVGPFIFFDRMGPALLRAGQAIDVRPHPHIGLSTVTYLFDGEIKHRDSLGTEMVIRPGDVNLMTAGRGIVHSERSPENQRGHERSLSGLQTWLALPDAMEEIDPVFAHTEERMLPHLADGGVRARVVIGQFEGAASPVSTFTDTIYVDLMIEPGKSAPFAANWEERALYILSGEAIIAGDHFDNNQLLVFRPGDEITITAGPAGCHVMLFGGAALGSPRHIWWNFVSSSKERIDKAKEEWRTGRFDIVPGDEEEFIPLPAS”, the “soluble on expression in E. coli” value is reported as “not soluble”.

In the case of “MRPSAPNIWIWKVSNLASDPRETVSGEWYAARSNLSSAARLRHGGTLLLVLDAKDNHVITKAEIKAVEISHRVGTIPREIHFPDGSLFETSDNEGVDRLLGLYLPKRAGFVHRLEQFRPRLIGITAAAVLLAYGTYKLALPAVVELAVAMTPPIVPKIMSASTMQALDQTVFSASELPLEEQNAIRVQFSRIAAHAEGSPEDYKLNFRKGGYIGPNAFALPDGTLVLTDELVELAGGDRQMIIGVLAHEIGHVEYEHSLRQLYRAAGVAGLVMLIAGDVGSAMEDILTQGGGLLALSHSRDAERQADQRSVELMRKADLDPTAIERFFALLEEKLGDKGGTSIISTHPGTPQRRKAIIDYNASLDNKPAGNLEHHHHHH”, the “soluble on expression in E. coli” value is on record as “not soluble”.

“MYNDDELTEFMDFLVEQTKDSIYPMVAAKVFKQFPNRRLIPKDKRYQRFVLQLAPKMNDWNNYSIEARIRLMYALRGKVEDDFLARIEAHGTVQLNEKQRISKFTANDGTFFLEDDRKRLSLDATRLEFVKLMGFLIEKTKDAVEPLPNTKLIFQEFSQIEPVKKPNDTDIMYKFRSSLAPYMDKWNDYSIEDRVRLMFALGGKIKDGFLRTIETHGTLQLDDKRRITKYVSNDGNFKLEGIRRNVHKKEATGPEYTRFMDFLIKTTKEAVEPMRVWLVHNEFKRQEGRKFSKSGYAKRFHKKLAPNMSKWTNYKIEERTRMMFAMKGKVESDFLAQIEESGKVQLDENHLIVKYTSKNRKIKLGGETRLVEKKKRKSTNYHKMHQKRRKIIRSVTDETSLVAKWKRKSDSYYEMYQKRRKIGEKELSDTAEVEEVAPYDSDYGNVYVENLEAEDQDTQLNPFNAMSDLTTDGPSSNAHDLTMWPNDDPKQEPVFENIFIQNQYFPPEIEEVPNQGVYHVEPETKLSYINTNPGSSVTESGGIKLHKFLNLLELILTSLESDTLDDLLNDIEGIRVRINDEILPPELVITALQTFLLGITRKSRSAASAENKSSHECLRIFKYSLPWLRSPLLWELQQRVEEEIESHVIGGKIILVADVQQGIRNILFAVSN”: the “soluble on expression in E. coli” value is recorded as “not soluble”.

Source of the values: the DeepSol protein solubility set.
